{"source": "paper PMC4032492", "about": "“Molecular mechanism of Aurora A kinase autophosphorylation and its allosteric activation by TPX2” (eLife, 2014)", "molecules": {"B1": {"name": "TPX2^1−45 (peptide)", "chain": "MSQVKSSYSYDAPSDFINFSSLDDEGDTQNIDSWFEEKANLENKL"}, "B2": {"name": "TPX2^1−147 (Targeting Protein for Xklp2, residues 1-147) (domain or fragment, UniProt Q9ULW0 1-147, looked up)", "chain": "MSQVKSSYSYDAPSDFINFSSLDDEGDTQNIDSWFEEKANLENKLLGKNGTGGLFQGKTPLRKANLQQAIVTPLKPVDNTYYKEAEKENLVEQSIPSNACSSLEVEAAISRKTPAQPQRRSLRLSAQKDLEQKEKHHVKMKAKRCAT", "notes": "TPX2 (Targeting Protein for Xklp2), residues 1-147; also called longer TPX2 variant"}, "B3": {"name": "TPX2^1−25 (peptide)", "chain": "MSQVKSSYSYDAPSDFINFSSLDDE"}, "B4": {"name": "Aurora A^125−392 D274A (domain or fragment, human, UniProt O14965 125-392, looked up)", "chain": "KRQWALEDFEIGRPLGKGKFGNVYLAREKQSKFILALKVLFKAQLEKAGVEHQLRREVEIQSHLRHPNILRLYGYFHDATRVYLILEYAPLGTVYRELQKLSKFDEQRTATYITELANALSYCHSKRVIHRDIKPENLLLGSAGELKIAAFGWSVHAPSSRRTTLCGTLDYLPPEMIEGRMHDEKVDLWSLGVLCYEFLVGKPPFEANTYQETYKRISRVEFTFPDFVTEGARDLISRLLKHNPSQRPMLREVLEHPWITANSSKPSN", "notes": "Aurora A kinase, human, residues 125-392, D274A; The purification of this mutant is not described on its own; also called kinase-dead Aurora A D274A; catalytically impaired D274A mutant; source: E. coli, purified (short 125-392 construct in pET28a)"}}, "key": {"[1]": {"molecular_target": "dephosphorylated Aurora A kinase 122-403 (human) (UniProt O14965)", "assay": "AUC; sedimentation velocity, 50,000 rpm, 18°C; 100-160 μM Aurora A + 500 μM AMPPCP, with or without 100 μM TPX2 1-25, kinase assay buffer; dimer to monomers"}, "[2]": {"molecular_target": "dephosphorylated Aurora A kinase 122-403 (human) (UniProt O14965)", "assay": "AUC + other: SAXS; estimate from the concentration dependence of the dimer in AUC and SAXS; dimer to monomers"}, "[3]": {"molecular_target": "dephosphorylated Aurora A kinase 122-403 (human) (UniProt O14965)", "assay": "SAXS; Aurora A 0.33-6.6 mg/ml with 1 mg/mL TPX2 1-25, 500 μM AMPPCP, kinase assay buffer, 20°C; curves fitted with monomer and dimer of the X-ray structures"}, "[4]": {"molecular_target": "T1, dephosphorylated Aurora A kinase 122-403 (human, UniProt O14965 122-403)", "T1 chain": "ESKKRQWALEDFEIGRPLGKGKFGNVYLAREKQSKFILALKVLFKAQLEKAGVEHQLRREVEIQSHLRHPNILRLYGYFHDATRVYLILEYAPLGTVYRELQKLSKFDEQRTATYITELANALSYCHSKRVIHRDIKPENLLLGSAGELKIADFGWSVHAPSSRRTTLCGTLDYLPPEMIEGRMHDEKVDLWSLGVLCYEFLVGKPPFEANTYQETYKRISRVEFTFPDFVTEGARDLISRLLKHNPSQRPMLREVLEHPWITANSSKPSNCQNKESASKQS", "assay": "ITC"}, "[5]": {"molecular_target": "T2, phosphorylated Aurora A kinase 122-403 (human, UniProt O14965 122-403, heavily phosphorylated (multiple sites, by autophosphorylation and E. coli kinases during expression); T288 in the activation loop phosphorylated)", "T2 chain": "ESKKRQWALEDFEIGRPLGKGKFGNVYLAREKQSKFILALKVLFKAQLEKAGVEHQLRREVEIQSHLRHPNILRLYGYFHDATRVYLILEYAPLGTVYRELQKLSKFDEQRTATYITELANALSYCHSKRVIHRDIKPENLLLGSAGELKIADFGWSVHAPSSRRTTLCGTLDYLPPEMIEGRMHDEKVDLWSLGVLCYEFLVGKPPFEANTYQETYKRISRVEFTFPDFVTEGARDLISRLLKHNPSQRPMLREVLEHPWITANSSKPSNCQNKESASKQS", "assay": "ITC; phosphorylated Aurora A"}, "[6]": {"molecular_target": "T3, dephosphorylated Aurora A kinase 122-403 (human, UniProt O14965 122-403)", "T3 construct": "Aurora A kinase, human, residues 122-403, codon-optimized, completely dephosphorylated (confirmed by MS); Monomer and dimer are both seen in solution; also called deP Aurora A; deP Aurora A^122−403", "T3 sequence (looked up)": "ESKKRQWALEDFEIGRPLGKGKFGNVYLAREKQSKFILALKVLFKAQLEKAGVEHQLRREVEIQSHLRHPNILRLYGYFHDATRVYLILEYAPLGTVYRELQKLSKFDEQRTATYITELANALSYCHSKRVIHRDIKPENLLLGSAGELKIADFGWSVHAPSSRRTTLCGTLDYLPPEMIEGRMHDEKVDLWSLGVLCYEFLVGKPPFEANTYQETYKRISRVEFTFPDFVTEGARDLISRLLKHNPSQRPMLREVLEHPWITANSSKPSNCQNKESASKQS", "assay": "ITC; Nano ITC, 1 μl injections every 180 s, 25°C; 20 mM TrisHCl, 200 mM NaCl, 3% glycerol, 1 mM TCEP, pH 7.50; independent fit model; Aurora A 13-90 μM, TPX2 250-940 μM", "details": "both partners purified"}, "Aurora A^122−403 T288V": {"molecular_target": "T4, Aurora A^122−403 T288V (human, UniProt O14965 122-403, T288V)", "T4 sequence (looked up)": "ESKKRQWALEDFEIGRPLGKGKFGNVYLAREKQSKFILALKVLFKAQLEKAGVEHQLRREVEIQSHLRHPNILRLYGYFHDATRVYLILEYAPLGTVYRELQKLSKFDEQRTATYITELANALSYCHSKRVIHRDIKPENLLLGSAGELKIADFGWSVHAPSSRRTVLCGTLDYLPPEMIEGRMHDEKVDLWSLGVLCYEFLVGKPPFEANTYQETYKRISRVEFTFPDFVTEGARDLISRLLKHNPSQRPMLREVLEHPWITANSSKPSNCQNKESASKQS", "assay": "cell-based or functional assay"}, "[7]": {"molecular_target": "the molecule itself", "assay": "AUC; sedimentation velocity, 50,000 rpm, 18°C; 100-160 μM Aurora A + 500 μM AMPPCP, with or without 100 μM TPX2 1-25, kinase assay buffer; dimer to monomers"}}, "data": [{"molecule": "dephosphorylated Aurora A kinase 122-403 (from UniProt O14965 122-403) (domain or fragment)", "values": [{"measurement": "stoichiometry N", "setting": "[1]", "value": 2}, {"measurement": "Kd", "setting": "[2]", "value": "> 300", "unit": "µM"}, {"measurement": "percent dimer", "setting": "[3]", "value": 9, "unit": "%"}]}, {"molecule": "B1", "values": [{"measurement": "Kd", "setting": "[4]", "value": 5, "unit": "µM"}, {"measurement": "Kd", "setting": "[5]", "value": 2, "unit": "µM"}]}, {"molecule": "B2", "values": [{"measurement": "Kd", "setting": "[6]", "value": "1.1 ± 0.1", "unit": "µM"}, {"measurement": "KA from the dose-dependence of TPX2 1-147 on AP phosphorylation kinetics by 1 μM Aurora A T288V", "setting": "Aurora A^122−403 T288V", "value": 1, "unit": "µM"}, {"measurement": "Kd", "setting": "[5]", "value": 2.9, "unit": "µM"}]}, {"molecule": "B3", "values": [{"measurement": "Kd", "setting": "[4]", "value": 2, "unit": "µM"}, {"measurement": "Kd", "setting": "[5]", "value": 1.8, "unit": "µM"}]}, {"molecule": "B4", "values": [{"measurement": "stoichiometry N", "setting": "[7]", "value": 2}]}]}
